Data taken from patent US20260115299A1, “CALSEQUESTRIN-BASED METAL ION REACTIVE PARTICLE AND USES THEREOF” (TOOLBIO. CO.,LTD., priority 2022, published 2026).

Assays:
HaCaT cells [1] = experiment: In vitro proliferation test (XTT); format: cell-based; details: 2.5 nM, 2 days, compared with native KGF
Method: HaCaT cells in 96-well plates were aliquoted at a specific cell/well and incubated at 37° C. in a 5% CO2 incubator with 10% FBS and 1% P/S-DMEM for one day. Starvation was performed with FBS Free DMEM for one day. After washing twice with DPBS, CSQ-KGF, CSQ, and KGF were added to FBS-free DMEM at a concentration of 2.5 nM, and the sample was divided so that the total volume became 200 ? . After incubation in an incubator for 2 days, XTT cell availability kit reagents were aliquoted, and then 450 nm absorbance was determined with a microplate reader.

HaCaT cells [2] = experiment: In vitro migration test (scratch); format: cell-based; details: 10 nM, 24-hour intervals, compared with native KGF
Method: HaCaT cells were aliquoted into 24-well plates at a specific cell/well and incubated at 37° C. in a 5% CO2 incubator with 10% FBS and 1% P/S-DMEM for one day. Starvation was performed with FBS Free DMEM for one day. Cells were scratched in a straight line using a 1000 ? pipette tip. After washing twice with DPBS, CSQ-KGF, CSQ, and KGF were added to FBS Free DMEM at a concentration of 10 nM, and the sample was divided so that the total volume became 500 ? . While culturing in a 5% CO2 incubator at 37° C. scratches were observed using a phase-contrast microscope at 24-hour intervals from […], and photographs were taken. The extent of wound closure was compared by analyzing the scratch area of the captured images using ImageJ.

B1: CSQ-KGF: fusion protein of human calsequestrin CSQ1 (SEQ ID No. 1) and KGF (SEQ ID No. 12) (protein)
chain: QEGLDFPEYDGVDRVINVNAKNYKNVFKKYEVLALLYHEPPEDDKASQRQFEMEELILELAAQVLEDKGVGFGLVDSEKDAAVAKKLGLTEVDSMYVFKGDEVIEYDGEFSADTIVEFLLDVLEDPVELIEGERELQAFENIEDEIKLIGYFKSKDSEHYKAFEDAAEEFHPYIPFFATFDSKVAKKLTLKLNEIDFYEAFMEEPVTIPDKPNSEEEIVNFVEEHRRSTLRKLKPESMYETWEDDMDGIHIVAFAEEADPDGFEFLETLKAVAQDNTENPDLSIIWIDPDDFPLLVPYWEKTFDIDLSAPQIGVVNVTDADSVWMEMDDEEDLPSAEELEDWLEDVLEGEINTEDDDDDDDDMCNDMTPEQMATNVNCSSPERHTRSYDYMEGGDIRVRRLFCRTQWYLRIDKRGKVKGTQEMKNNYNIMEIRTVAVGIVAIKGVESEFYLAMNKEGKLYAKKECNEDCNFKELILENHYNTYASAKWTHNGGEMFVALNQKGIPVRGKKTKKEQKTAHFLPMAIT
Q: How did the “proliferation efficacy (450 nm absorbance, XTT)” value (HaCaT cells [1]) turn out when B1 was run?
A: same efficacy as native KGF

Q: What about the “migration efficacy (extent of wound closure, scratch area)” value (HaCaT cells [2]) of the same molecule?
A: same efficacy as native KGF
